According to the Human Domainome abundance scans (Beltran et al. 2025):
± gives the uncertainty stated by the source.

B1: Cyclin-F, residues 28 to 80; numbered along this chain, P41002 (parent)
chain: RNLTILSLPEDVLFHILKWLSVEDILAVRAVHSQLKDLVDNHASVWACASFQE

Variants of: B1
Experiment: abundance fitness (aPCA) (normalised: wild type 0, dead -1); higher = more abundant; growth selection in yeast, the domain comes from the species named
Conditions: Homo sapiens

Row | Variant | abundance fitness
1 | RNLTILSLPEDVLSHILKWLSVEDILAVRAVHSQLKDLVDNHASVWACASFQE | -0.158 ± 0.08
2 | RNLTILSLPEDVLTHILKWLSVEDILAVRAVHSQLKDLVDNHASVWACASFQE | 0.061 ± 0.094
3 | RNLTILSLPEDVLVHILKWLSVEDILAVRAVHSQLKDLVDNHASVWACASFQE | 0.198 ± 0.075
4 | RNLTILSLPEDVLWHILKWLSVEDILAVRAVHSQLKDLVDNHASVWACASFQE | 0.347 ± 0.083
5 | RNLTILSLPEDVLYHILKWLSVEDILAVRAVHSQLKDLVDNHASVWACASFQE | -0.153 ± 0.15
6 | RNLTILSLPEDVLFAILKWLSVEDILAVRAVHSQLKDLVDNHASVWACASFQE | -0.279 ± 0.14
7 | RNLTILSLPEDVLFCILKWLSVEDILAVRAVHSQLKDLVDNHASVWACASFQE | -0.091 ± 0.17
8 | RNLTILSLPEDVLFDILKWLSVEDILAVRAVHSQLKDLVDNHASVWACASFQE | -0.408 ± 0.18
9 | RNLTILSLPEDVLFEILKWLSVEDILAVRAVHSQLKDLVDNHASVWACASFQE | -0.222 ± 0.15
10 | RNLTILSLPEDVLFFILKWLSVEDILAVRAVHSQLKDLVDNHASVWACASFQE | -0.499 ± 0.15
11 | RNLTILSLPEDVLFIILKWLSVEDILAVRAVHSQLKDLVDNHASVWACASFQE | -0.21 ± 0.19
12 | RNLTILSLPEDVLFKILKWLSVEDILAVRAVHSQLKDLVDNHASVWACASFQE | 0.216 ± 0.15
13 | RNLTILSLPEDVLFLILKWLSVEDILAVRAVHSQLKDLVDNHASVWACASFQE | -0.204 ± 0.1
14 | RNLTILSLPEDVLFMILKWLSVEDILAVRAVHSQLKDLVDNHASVWACASFQE | -0.116 ± 0.14
15 | RNLTILSLPEDVLFNILKWLSVEDILAVRAVHSQLKDLVDNHASVWACASFQE | 0.226 ± 0.14
16 | RNLTILSLPEDVLFPILKWLSVEDILAVRAVHSQLKDLVDNHASVWACASFQE | -0.731 ± 0.17
17 | RNLTILSLPEDVLFQILKWLSVEDILAVRAVHSQLKDLVDNHASVWACASFQE | -0.356 ± 0.17
18 | RNLTILSLPEDVLFRILKWLSVEDILAVRAVHSQLKDLVDNHASVWACASFQE | 0.222 ± 0.089
19 | RNLTILSLPEDVLFSILKWLSVEDILAVRAVHSQLKDLVDNHASVWACASFQE | -0.235 ± 0.12
20 | RNLTILSLPEDVLFTILKWLSVEDILAVRAVHSQLKDLVDNHASVWACASFQE | -0.455 ± 0.13
21 | RNLTILSLPEDVLFVILKWLSVEDILAVRAVHSQLKDLVDNHASVWACASFQE | -0.55 ± 0.13
22 | RNLTILSLPEDVLFWILKWLSVEDILAVRAVHSQLKDLVDNHASVWACASFQE | -0.561 ± 0.18
23 | RNLTILSLPEDVLFYILKWLSVEDILAVRAVHSQLKDLVDNHASVWACASFQE | -0.388 ± 0.075
24 | RNLTILSLPEDVLFHALKWLSVEDILAVRAVHSQLKDLVDNHASVWACASFQE | -0.901 ± 0.14
25 | RNLTILSLPEDVLFHCLKWLSVEDILAVRAVHSQLKDLVDNHASVWACASFQE | -0.341 ± 0.18

Row | Variant | abundance fitness
26 | RNLTILSLPEDVLFHELKWLSVEDILAVRAVHSQLKDLVDNHASVWACASFQE | -0.773 ± 0.23
27 | RNLTILSLPEDVLFHGLKWLSVEDILAVRAVHSQLKDLVDNHASVWACASFQE | -0.701 ± 0.095
28 | RNLTILSLPEDVLFHHLKWLSVEDILAVRAVHSQLKDLVDNHASVWACASFQE | -1.02 ± 0.31
29 | RNLTILSLPEDVLFHKLKWLSVEDILAVRAVHSQLKDLVDNHASVWACASFQE | -1.11 ± 0.43
30 | RNLTILSLPEDVLFHLLKWLSVEDILAVRAVHSQLKDLVDNHASVWACASFQE | -0.646 ± 0.11
31 | RNLTILSLPEDVLFHMLKWLSVEDILAVRAVHSQLKDLVDNHASVWACASFQE | -0.32 ± 0.14
32 | RNLTILSLPEDVLFHNLKWLSVEDILAVRAVHSQLKDLVDNHASVWACASFQE | -1.04 ± 0.34
33 | RNLTILSLPEDVLFHPLKWLSVEDILAVRAVHSQLKDLVDNHASVWACASFQE | -0.673 ± 0.22
34 | RNLTILSLPEDVLFHRLKWLSVEDILAVRAVHSQLKDLVDNHASVWACASFQE | -0.501 ± 0.093
35 | RNLTILSLPEDVLFHSLKWLSVEDILAVRAVHSQLKDLVDNHASVWACASFQE | -0.664 ± 0.15
36 | RNLTILSLPEDVLFHTLKWLSVEDILAVRAVHSQLKDLVDNHASVWACASFQE | -0.805 ± 0.22
37 | RNLTILSLPEDVLFHWLKWLSVEDILAVRAVHSQLKDLVDNHASVWACASFQE | -0.823 ± 0.17
38 | RNLTILSLPEDVLFHYLKWLSVEDILAVRAVHSQLKDLVDNHASVWACASFQE | -0.641 ± 0.24
39 | RNLTILSLPEDVLFHIAKWLSVEDILAVRAVHSQLKDLVDNHASVWACASFQE | -0.781 ± 0.13
40 | RNLTILSLPEDVLFHICKWLSVEDILAVRAVHSQLKDLVDNHASVWACASFQE | -0.223 ± 0.14
41 | RNLTILSLPEDVLFHIDKWLSVEDILAVRAVHSQLKDLVDNHASVWACASFQE | -0.868 ± 0.28
42 | RNLTILSLPEDVLFHIEKWLSVEDILAVRAVHSQLKDLVDNHASVWACASFQE | -1.06 ± 0.23
43 | RNLTILSLPEDVLFHIFKWLSVEDILAVRAVHSQLKDLVDNHASVWACASFQE | 0.056 ± 0.12
44 | RNLTILSLPEDVLFHIGKWLSVEDILAVRAVHSQLKDLVDNHASVWACASFQE | -0.547 ± 0.099
45 | RNLTILSLPEDVLFHIHKWLSVEDILAVRAVHSQLKDLVDNHASVWACASFQE | -0.678 ± 0.46
46 | RNLTILSLPEDVLFHIIKWLSVEDILAVRAVHSQLKDLVDNHASVWACASFQE | 0.148 ± 0.26
47 | RNLTILSLPEDVLFHINKWLSVEDILAVRAVHSQLKDLVDNHASVWACASFQE | -0.926 ± 0.4
48 | RNLTILSLPEDVLFHIQKWLSVEDILAVRAVHSQLKDLVDNHASVWACASFQE | -0.782 ± 0.21
49 | RNLTILSLPEDVLFHIRKWLSVEDILAVRAVHSQLKDLVDNHASVWACASFQE | -0.774 ± 0.12
